Test results as given in publication PMC4870127.

Assays:
Test in all cases: FXa generation assay
[1] = molecular target: Factor VIIIa (WT), thrombin-activated WT B-domainless FVIII
[2] = molecular target: Factor VIIIa T657Y/Y1792T swap variant (thrombin-activated B-domainless FVIII)
[3] = molecular target: Factor VIIIa D666S/S1787D swap variant (thrombin-activated B-domainless FVIII)

FIXaβ (from UniProt P00740 47-191; P00740 227-461) (enzyme)
Kd [1]: 0.92 nM
Kd [2]: 1.45 nM
Kd [3]: 1.73 nM
